Experimental data from patent US20260139049A1 (PEDIATRIC IMMUNITY AND HEALTHCARE GUANGZHOU BIOTECHNOLOGY, published 2026).
Read-outs that look alike come from different tables or passages of the source. Blank lines part the entries; values can stand above or below the binder they belong to.

Assays:
human CLDN6 [1] = biological target: T1, human CLDN6 (human, UniProt P56747 1-220); assay: FACS on HEK293T-CLDN6 cells
T1 construct: whole, on cells; four-transmembrane protein; also called claudin-6; HEK293T-CLDN6
T1 sequence (looked up): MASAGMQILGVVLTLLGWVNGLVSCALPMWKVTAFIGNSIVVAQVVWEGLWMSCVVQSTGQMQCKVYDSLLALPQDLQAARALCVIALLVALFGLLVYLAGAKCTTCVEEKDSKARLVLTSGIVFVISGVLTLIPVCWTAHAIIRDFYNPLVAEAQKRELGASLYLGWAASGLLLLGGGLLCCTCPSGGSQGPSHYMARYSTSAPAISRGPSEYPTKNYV
Description: (§1) To detect a binding capacity of a chimeric or humanized antibody to CLDN6, a CLDN6-expressing cell line HEK293T-CLDN6 and a CLDN6-negative control cell line HEK293T were washed three times with PBS. 1×10⁵ test cells and 50 μL of an antibody solution to be tested were added to a 96-well plate, and incubated at 4° C. for 1 h. The cells were then washed three times with PBS. […] Finally, cells were washed three times with PBS, and signals were read using FACS.

human CLDN6 [2] = biological target: T1, human CLDN6; assay: FACS on HEK293T-CLDN6 cells; remark: listed apart in the source
Description: as §1
(§2) An EC50 value (a concentration of an antibody that binds to half of binding sites at equilibrium) is calculated through nonlinear regression.

[3] = biological target: T2, monkey CLDN6 (Cyno CLDN6) (monkey (Cyno)); assay: FACS on CHO-K1-Cyno CLDN6 cells
T2 construct: whole, on cells; also called CHO-K1-Cyno CLDN6

mouse CLDN6 = biological target: T3, mouse CLDN6 (mouse, UniProt Q9Z262 1-219); assay: FACS on CHO-K1-Mouse CLDN6 cells
T3 construct: whole, on cells; also called CHO-K1-Mouse CLDN6
T3 sequence (looked up): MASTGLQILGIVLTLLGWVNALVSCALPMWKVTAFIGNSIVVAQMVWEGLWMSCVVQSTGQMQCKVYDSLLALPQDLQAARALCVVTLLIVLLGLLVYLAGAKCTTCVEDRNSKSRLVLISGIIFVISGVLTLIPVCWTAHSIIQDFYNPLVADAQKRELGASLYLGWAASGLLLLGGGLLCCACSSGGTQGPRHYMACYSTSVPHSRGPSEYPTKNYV

human CLDN6 [4] = biological target: T1, human CLDN6; assay: FACS on PA-1 tumour cells; target on the cells taken as CLDN6
Description: (§3) The specific binding of a chimeric antibody to a tumor cell was detected by FACS, and an EC50 value was calculated accordingly to evaluate an inhibitory effect of the chimeric antibody on the tumor cell.
(§4) 50 μL of an antibody to be tested was added to a 96-well plate, then 1×10⁵ cells were added to each well, and incubation was conducted at 4° C. for 1 h. Cells were washed three times with PBS. […] Finally, cells were washed three times with PBS, and signals were read using FACS. A binding capacity of the antibody to each tumor cell was analyzed based on detection data.

human CLDN6 [5] = biological target: T1, human CLDN6; assay: FACS on HepG2 tumour cells; target on the cells taken as CLDN6
Description: as §3, §4

human CLDN6 [6] = biological target: T1, human CLDN6; assay: FACS on 293T-CLDN6 cells, 10 µg/mL
human CLDN9 [7] = biological target: T4, human CLDN9 (human, UniProt O95484 1-217); assay: FACS on 293T-CLDN9 cells, 10 µg/mL
T4 construct: whole, on cells; also called HEK293T-CLDN9
T4 sequence (looked up): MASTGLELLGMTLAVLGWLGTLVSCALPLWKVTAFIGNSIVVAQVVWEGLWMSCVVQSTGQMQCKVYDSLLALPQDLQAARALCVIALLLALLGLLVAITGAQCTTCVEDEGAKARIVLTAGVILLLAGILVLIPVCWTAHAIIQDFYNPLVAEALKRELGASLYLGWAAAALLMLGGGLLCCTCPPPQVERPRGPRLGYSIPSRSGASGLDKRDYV
Description: as §4, with “1× 10⁵” for “1×10⁵”, “Binding capacities” for “A binding capacity”, “CLDN9, CLDN3, and CLDN4 were” for “each tumor cell was”, “analyzed separately” for “analyzed”

human CLDN6 [8] = biological target: T1, human CLDN6; assay: cell-based or functional assay
human CLDN6 [9] = biological target: T1, human CLDN6; assay: cell-based or functional assay; remark: listed apart in the source
human CLDN6 [10] = biological target: T1, human CLDN6; assay: FACS on HEK293T-CLDN6 cells; remark: listed apart in the source
Description: as §1, §2

human CLDN3 = biological target: T5, human CLDN3 (human, UniProt O15551 1-220); assay: FACS on 293T-CLDN3 cells, 10 µg/mL
T5 construct: whole, on cells; also called HEK293T-CLDN3
T5 sequence (looked up): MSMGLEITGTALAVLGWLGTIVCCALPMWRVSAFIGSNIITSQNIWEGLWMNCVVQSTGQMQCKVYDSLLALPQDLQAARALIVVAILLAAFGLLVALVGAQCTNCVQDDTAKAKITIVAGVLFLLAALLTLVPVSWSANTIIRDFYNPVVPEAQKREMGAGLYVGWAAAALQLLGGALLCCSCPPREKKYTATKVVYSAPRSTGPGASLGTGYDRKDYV
Description: as §4, with “1× 10⁵” for “1×10⁵”, “Binding capacities” for “A binding capacity”, “CLDN9, CLDN3, and CLDN4 were” for “each tumor cell was”, “analyzed separately” for “analyzed”

human CLDN4 = biological target: T6, human CLDN4 (human, UniProt O14493 1-209); assay: FACS on 293T-CLDN4 cells, 10 µg/mL
T6 construct: whole, on cells; also called HEK293T-CLDN4
T6 sequence (looked up): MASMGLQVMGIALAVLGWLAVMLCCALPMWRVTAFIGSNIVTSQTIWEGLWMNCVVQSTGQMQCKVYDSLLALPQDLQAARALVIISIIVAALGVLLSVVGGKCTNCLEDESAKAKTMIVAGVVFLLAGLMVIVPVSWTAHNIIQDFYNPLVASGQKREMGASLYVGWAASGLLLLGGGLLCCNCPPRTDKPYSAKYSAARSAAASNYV
Description: as §4, with “1× 10⁵” for “1×10⁵”, “Binding capacities” for “A binding capacity”, “CLDN9, CLDN3, and CLDN4 were” for “each tumor cell was”, “analyzed separately” for “analyzed”

human CLDN6 [11] = biological target: T1, human CLDN6; assay: FACS on 293T-CLDN6 cells, 10 µg/mL; remark: listed apart in the source
human CLDN9 [12] = biological target: T4, human CLDN9; assay: FACS on 293T-CLDN9 cells, 10 µg/mL; remark: listed apart in the source
Description: as §4, with “1× 10⁵” for “1×10⁵”, “Binding capacities” for “A binding capacity”, “CLDN9, CLDN3, and CLDN4 were” for “each tumor cell was”, “analyzed separately” for “analyzed”

human CLDN6 [13] = biological target: T1, human CLDN6; assay: ratio of FACS signals on CLDN6 cells over CLDN9 cells
Description: as §4, with “1× 10⁵” for “1×10⁵”, “Binding capacities” for “A binding capacity”, “CLDN9, CLDN3, and CLDN4 were” for “each tumor cell was”, “analyzed separately” for “analyzed”

human CLDN6 [14] = biological target: T1, human CLDN6; assay: FACS on PA-1 tumour cells; target on the cells taken as CLDN6; remark: listed apart in the source
Description: as §4

human CLDN6 [15] = biological target: T1, human CLDN6; assay: FACS on HepG2 tumour cells; target on the cells taken as CLDN6; remark: listed apart in the source
Description: as §4

human CLDN6 [16] = biological target: T1, human CLDN6; assay: as above; remark: listed apart in the source
Description: as §4

human CLDN6 [17] = biological target: T1, human CLDN6; assay: ratio of FACS Geom.Mean on 293T-CLDN6 over 293T-CLDN9, 10 µg/mL
Description: as §4, with “1× 10⁵” for “1×10⁵”, “Binding capacities” for “A binding capacity”, “CLDN9, CLDN3, and CLDN4 were” for “each tumor cell was”, “analyzed separately” for “analyzed”

FACS signal (human CLDN6 [1]): 33000
EC50 (human CLDN6 [2]): 0.674 µg/mL
EC50 [3]: 0.343 µg/mL
EC50 (mouse CLDN6): 0.633 µg/mL
EC50 (human CLDN6 [4]): 0.737 µg/mL
EC50 (human CLDN6 [5]): 1.38 µg/mL
B1: 47A5B10 (antibody, human IgG1, kappa, V domains shown)
VH: QGQLQQSGAELARPGASVKLSCKASGYTFTSYGISWVKQRTGQGLEWIGEIYPRSGNTYHNEKFKGKATLTADKSSSTAYMELRSLTSEDSAVYFCARSSYDYYAMDYWGQGTSVTVSS
VL: EIVVTQSPALMAASPGEKVTITCSVSSIISSSKLHWYQQKSETSPKPWIYGTSNLASGVPIRFSGSGSGTSYSLTISSMEAEDAATYYCQQWSSYPLTFGAGTKLELKR
notes: chimeric: murine variable regions on human IgG1 constant regions

Geom.Mean (human CLDN6 [6]): 41400
Geom.Mean (human CLDN9 [7]): 1170
B2: 51C10-M1 (antibody, human IgG1, kappa, V domains shown)
VH: EVQLQQSGPELVKPGASVKMSCKASGYTFTDYNMHWVKKSHGKSLEWIGYVNPNNAATSYNQKFKGKATLTVNKSSSTAYMELRSLTSEDSAVYNCARWDGYVYYYGLDYWGQGTSVTVSS
VL: DIQMTQSSSYLSVSLGGRVTITCKASDHINNWLAWYQQKPGNAPRLLISGATSLETGVPSRFSGSGSGKDYTLSITSLQTEDVATYYCQQYWSTPYTFGGGTKLEIKR
notes: 51C10H4 with G of NG in heavy-chain CDR2 changed to A; also called improved antibody 51C10-M1

ADCC dose-response fit: EC50 (human CLDN6 [8]): 0.0413 µg/mL
ADCC dose-response fit: LogEC50 (human CLDN6 [8]): -1.39
CDC dose-response fit: EC50 (human CLDN6 [9]): 0.252 µg/mL
CDC dose-response fit: LogEC50 (human CLDN6 [9]): -0.6
EC50 (human CLDN6 [2]): 0.352 µg/mL
EC50 (human CLDN6 [10]): 0.285 µg/mL
EC50 [3]: 0.78 µg/mL
EC50 (mouse CLDN6): 1.5 µg/mL
Geom.Mean (human CLDN3): 101
Geom.Mean (human CLDN4): 104
Geom.Mean (human CLDN6 [11]): 37500
Geom.Mean (human CLDN9 [12]): 141
CLDN6/CLDN9 signal ratio (human CLDN6 [13]): ~200 fold
EC50 (human CLDN6 [4]): 0.64 µg/mL
EC50 (human CLDN6 [14]): 0.415 µg/mL
EC50 (human CLDN6 [5]): 0.449 µg/mL
EC50 (human CLDN6 [15]): 0.47 µg/mL
EC50 (human CLDN6 [16]): 0.552 µg/mL
CLDN6/CLDN9 ratio (human CLDN6 [17]): 265
B3: 54B5A7 (antibody, human IgG1, kappa, V domains shown)
VH: EVQLQQSGPELVKPGASVKMSCKASGYTFTDYNMHWVKKSHGKSLEWIGYINPNNGATNYNQKFKGKATLTVNKSSSTAYMELRSLTSEDSAVYNCARWDGYVYYYGMDYWGQGTSVTVSS
VL: DIQMTQSSSYLSVSLGGRVTITCKASDHINNWLAWYQQKPGNAPRLLISGATSLETGVPSRFSGSGSGKDYTLSITSLQTEDVATYYCQQYWNTPYTFGGGTKLEIKR
notes: chimeric IgG1
